Experimental findings from patent publication US20060073159A1, “Human anti-cancer immunotherapy” (The Trustees of the University of Pennsylvania, priority 2004, published 2006) are described below.

Assay [1] deals with T1, HLA-A2 (Homo sapiens, UniProt P04439, D140Y/D185E/D98H/E176V/E277Q/G131W/G231S/I119V/I121R/I166T/I218V/L300P/L318F/N151K/N90K/P208A/P217A/Q86G/Q94H/R138H/R169H/T345S).
T1 construct: T2 cells are prepared to a concentration of 1×10^6 cells/mL; endogenous in cells; host or cells: T2 cells
Put plainly: flow-based T2 binding assay (HLA-A2 binding and MHC complex stability). The settings on record: 6 epitopes from each gene product compared, T2 cells. How it is done:
T2 cells are harvested as described elsewhere herin. T2 cells are wash three times in serum free media. T2 cells are prepared to a concentration of 1×10^6 cells/mL. 1 mL of T2 cells is added to each well of 24 well plate. B2M (1 mg/mL) is added to the mixture to give a final concentration of 2.5 ug/mL. Appropriate control or peptide at 50 ug/mL is added to each wll. The cells are incubated in an incubator at 37° C. For a positive control peptide, RT-POL vs flu or tax can be used.
Next day, cells are harvested and washed three times in serum-free RPMI. The supernatant is removed and the cells are resuspend in 800 ul of serum free IMDM. The cells are plated (400 ul of cells) to one well of a 48 well plate. […]
The fluorescence index (FI) can be calculated from the mean fluorescence intensity as follows: FI=(MFIpeptide/MFIno peptide)−1 The complex's half-life can be calculated using SigmaPlot regression analysis and the following formula: y=yo+a*e^bx t1/2=1/b*ln((y−yo)/a) with yo=Fimax/2 Conjugation of Monomers to Generate Tetramers
HLA-A2-restricted epitopes derived from HoxA9 and Meis I were predicted using two computational algorithms, and 6 epitopes from each gene product with the highest predicted likelihood of binding to HLA-A2 were evaluated empirically using a flow-based T2 assay, as described (Vonderheide et al., 1999, Immunity 10:673-679). […]

The test system of assay [2] is T2 cells loaded with cognate peptide. Put plainly: lysis of peptide-loaded T2 cells by peptide-specific CTL. The format is cell-based, human. The settings on record: not negative control viral peptide. The method, then: The following assay is adapted from Fischer et al. (2002, J. Immunol. Methods 259:159-169). Briefly, T2 cells are labeled as follows. T2 cells are plated at 1×10^6/mL in serum-free RPMI-1640×1 mL in 24 well plate. 2.5 ug/mL B2M is added to the cells. 1 ug/mL peptide (Tax or Flu) is added to the mixture. The cells are incubate overnight at 37° C. in a CO2 incubator. The cells are then washed once in RPMI-1640 (serum free). The supernatant is removed; leaving about 25 ul supernatant on the pellet. The remaining cells in suspension are agitated to mix with the supernatant. 1 mL of diluent C is added to resuspend the cells.
Immediately prior to staining, 4×10)(−6)M PKH26 dye is prepared at RT (1:250 dilution of stock; 4 ul of 996 ul diluent C). 1 mL of PKH26 dye is immediately added to 1 mL of cells. The sample is immediatedly mixed by gentle pipetting. The sample is incubate at RT for about 2-5 minutes, with periodical swirling of the tube to insure mixing. The staining reaction is stopped by adding 2 mL of serum in a compatible protein solution. This solution is incubated for 1 minute to stop the staining reaction. The sample is then diluted with 4 mL of complete media (T cell media). The cells are washed two to three times with T cell media.
To assay for the T2 cells, targets at 2e5/mL in IMDM 10% huSerum is prepared. Effectors are prepared at 2×10^6/mL and 2×10^5/mL in IMDM 10% huSerum. […]

The test system of assay [3] is HoxA9+ and Meis1+ leukemia cell lines. Briefly: lysis of leukemia cell lines by peptide-specific CTL. The class given is cell-based, human. The settings on record: antigen-dependent, MHC-restricted; HLA-A2-negative or antigen-negative leukemia cells not killed. The source says:
To determine whether these peptides could trigger the expansion of specific CTL, CD8+ T cells from normal HLA-A2+ donors were stimulated in vitro with autologous peptide-loaded antigen presenting cells, using a system previously described (Vonderheide et al., 1999, Immunity 10:673-679). […] Moreover, both Hox-TLD and Mei-AIY specific CTL were able to lyse HoxA9+ and Meis1+leukemia cell lines in an antigen-dependent, MHC-restricted fashion.

Assay [4] addresses T2, human HLA-A*0201 (human).
T2 construct: HLA-A2 on TAP-deficient T2 cells; Surface stabilisation by peptide was read with anti-HLA-A2-FITC by flow cytometry; also called HLA-A2; A2
Put plainly: flow-based T2 assay (HLA-A2 stabilisation on peptide-pulsed T2 cells, anti-HLA-A2-FITC). How it is done:
Next day, cells are harvested and washed three times in serum-free RPMI. The supernatant is removed and the cells are resuspend in 800 ul of serum free IMDM. The cells are plated (400 ul of cells) to one well of a 48 well plate. The cells are incubate for an additional 6 hours in an incubator at 37° C. The remaining cells are saved and place on ice for immediate analysis. The cells are stained for anti-HLA-A2-FITC and for IgG-FITC. The cells are anaylized on a flow cytometer.
HLA-A2-restricted epitopes derived from HoxA9 and Meis I were predicted using two computational algorithms, and 6 epitopes from each gene product with the highest predicted likelihood of binding to HLA-A2 were evaluated empirically using a flow-based T2 assay, as described (Vonderheide et al., 1999, Immunity 10:673-679). […] The same cells in normal HLA-A2+ donors were undetectable.

In the case of “Hox-TLD: epitope of the antigen HOX-A9, SEQ ID NO:3 (TLDTHTLSL; human-derived peptide)”, the “binding and MHC complex stability” value in assay [1] was “best binding and MHC complex stability”. Besides, the “lysis of T2 cells loaded with cognate peptide by specific CTL” value in assay [2] is “able to lyse T2 cells loaded with cognate peptide”. Moreover, in assay [3], the “lysis of HoxA9+ and Meis1+ leukemia cell lines by specific CTL” value is on record as “able to lyse”.
For the molecule “Mei-AIY: epitope of the antigen Meis1, SEQ ID NO:11 (AIYGHPLFPL; human-derived peptide)”, the “binding and MHC complex stability” value in assay [1] was “best binding and MHC complex stability”. Moreover, the “lysis of T2 cells loaded with cognate peptide by specific CTL” value in assay [2] is reported as “able to lyse T2 cells loaded with cognate peptide”. The “lysis of HoxA9+ and Meis1+ leukemia cell lines by specific CTL” value in assay [3] was “able to lyse”.
Regarding TLDTHTLSL [Hox-TLD], the binding result in assay [4] was “binds”.
Take AIYGHPLFPL [Mei-AIY]: in assay [4], the binding result is “binds”.
